From publication PMC8455534, “A new carboxypeptidase from Aspergillus niger with good thermostability, pH stability and broad substrate specificity” (Scientific Reports, 2021)

What was measured:
Assay in all cases: ninhydrin release assay, A570, Lineweaver-Burk
Type in all cases: biochemical, Aspergillus niger
Settings in all cases: 0.1 mol L^−1 disodium hydrogen phosphate-citric acid buffer, pH 6.0, 45 °C
[1] = test system: T1, CC(C)C[C@H](NC(=O)[C@H](Cc1ccccc1)NC(=O)OCc1ccccc1)C(=O)O
T1 construct: ORF 1479 bp, 492 residues with predicted 19-residue signal peptide; secreted from Pichia pastoris GS115 (pPIC9K), purified; no tag told
From the text: (§1) ninhydrin release assay, A570, Lineweaver-Burk on CapA (serine carboxypeptidase)

[2] = test system: T2, O=C(O)CNC(=O)[C@@H]1CCCN1C(=O)OCc1ccccc1
T2 construct: ORF 1479 bp, 492 residues with predicted 19-residue signal peptide; secreted from Pichia pastoris GS115 (pPIC9K), purified; no tag told
From the text: as §1

[3] = test system: T3, C[C@H](NC(=O)CNC(=O)OCc1ccccc1)C(=O)O
T3 construct: ORF 1479 bp, 492 residues with predicted 19-residue signal peptide; secreted from Pichia pastoris GS115 (pPIC9K), purified; no tag told
From the text: as §1

[4] = test system: T4, C[C@H](NC(=O)OCc1ccccc1)C(=O)N[C@@H](CCCCN)C(=O)O
T4 construct: ORF 1479 bp, 492 residues with predicted 19-residue signal peptide; secreted from Pichia pastoris GS115 (pPIC9K), purified; no tag told
From the text: as §1

[5] = test system: T5, C[C@H](NC(=O)OCc1ccccc1)C(=O)N[C@@H](CCC(=O)O)C(=O)O
T5 construct: ORF 1479 bp, 492 residues with predicted 19-residue signal peptide; secreted from Pichia pastoris GS115 (pPIC9K), purified; no tag told
From the text: as §1

CapA (serine carboxypeptidase) (Aspergillus niger CBS 513.88)
Km [1]: 63 ± 10 µM
Vmax [1]: 54800 µM/min/mg
kcat [1]: 11.7 ± 1.02 s⁻¹
kcat/Km [1]: 186000 ± 16700 M⁻¹ s⁻¹
Km [2]: 1170 ± 210 µM
Vmax [2]: 9770 µM/min/mg
kcat [2]: 0.47 ± 0.02 s⁻¹
kcat/Km [2]: 400 ± 50 M⁻¹ s⁻¹
Km [3]: 240 ± 20 µM
Vmax [3]: 42700 µM/min/mg
kcat [3]: 1.71 ± 0.08 s⁻¹
kcat/Km [3]: 7130 ± 480 M⁻¹ s⁻¹
Km [4]: 180 ± 30 µM
Vmax [4]: 41900 µM/min/mg
kcat [4]: 2.32 ± 0.17 s⁻¹
kcat/Km [4]: 12900 ± 1130 M⁻¹ s⁻¹
Km [5]: 1440 ± 90 µM
Vmax [5]: 6490 µM/min/mg
kcat [5]: 0.18 ± 0.01 s⁻¹
kcat/Km [5]: 130 ± 10 M⁻¹ s⁻¹
